Measurements reported in article PMC8876058 (Viruses, 2022).

Tests used:
[1] = molecular target: T1, CyPet-Ubc9 (SUMOylation E2 conjugating enzyme Ubc9 fused to the FRET donor CyPet) (human, UniProt P63279 1-158); assay: FRET or BRET; settings: both partners purified
T1 construct: also called SUMO E2

[2] = molecular target: T2, CyPet-PIAS1 (SUMOylation E3 ligase PIAS1 fused to the FRET donor CyPet) (human, UniProt O75925 1-651); assay: FRET or BRET; settings: both partners purified
T2 construct: also called SUMO E3
T2 sequence (O75925 whole entry, the tested form may be a part): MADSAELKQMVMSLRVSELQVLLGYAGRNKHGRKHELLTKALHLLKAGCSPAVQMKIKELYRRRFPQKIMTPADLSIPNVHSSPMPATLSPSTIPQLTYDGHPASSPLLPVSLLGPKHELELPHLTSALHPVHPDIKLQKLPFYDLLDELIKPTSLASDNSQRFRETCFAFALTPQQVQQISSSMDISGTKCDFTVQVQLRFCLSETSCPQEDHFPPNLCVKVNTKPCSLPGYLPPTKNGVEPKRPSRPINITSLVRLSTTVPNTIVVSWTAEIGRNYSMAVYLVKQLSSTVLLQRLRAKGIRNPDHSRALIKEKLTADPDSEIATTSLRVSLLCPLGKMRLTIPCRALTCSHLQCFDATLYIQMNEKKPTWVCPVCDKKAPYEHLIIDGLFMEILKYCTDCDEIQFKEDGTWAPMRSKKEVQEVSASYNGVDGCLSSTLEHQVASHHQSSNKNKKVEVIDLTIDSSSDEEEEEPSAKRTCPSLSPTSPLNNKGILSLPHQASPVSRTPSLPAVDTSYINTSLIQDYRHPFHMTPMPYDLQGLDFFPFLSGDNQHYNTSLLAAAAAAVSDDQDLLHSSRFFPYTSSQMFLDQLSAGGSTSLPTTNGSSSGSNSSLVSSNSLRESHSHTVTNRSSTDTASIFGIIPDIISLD

T1 sequence (P63279 whole entry, the tested form may be a part): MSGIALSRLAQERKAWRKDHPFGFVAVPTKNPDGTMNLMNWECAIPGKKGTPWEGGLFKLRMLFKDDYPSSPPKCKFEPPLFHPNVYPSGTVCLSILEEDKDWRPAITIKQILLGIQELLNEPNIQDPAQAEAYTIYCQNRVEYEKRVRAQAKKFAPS

B1: YPet-Linker3-M1 (M1 protein of influenza B virus fused to the FRET acceptor YPet) (natural protein)
chain: MSLFGDTIAYLLSLTEDGEGKAELAEKLHCWFGGKEFDLDSALEWIKNKRCLTDIQKALIGASICFLKPKDQERKRRFITEPLSGMGTTATKKKGLILAERKMRRCVSFHEAFEIAEGHESSALLYCLMVMYLNPGNYSMQVKLGTLCALCEKQASHSHRAHSRAARSSVPGVRREMQMVSAMNTAKTMNGMGKGEDVQKLAEELQSNIGVLRSLGASQKNGEGIAKDVMEVLKQSSMGNSALVKKYL
[1]
  Kd: 0.2 µM
[2]
  Kd: 0.22 µM
